Assay results as given in PMC11633098.

Columns and labels:
human plasmin (human) [1] = assay: ELISA; solid-phase binding: Plg, Pln or BSA immobilised on 4HBX plates; increasing concentrations (1 nM to 4 µM) of recombinant protein; anti-His HRP detection; one-site specific binding fit; apparent KD
[2] = target: human plasminogen (human) (UniProt P00747); assay: as above
human plasmin (human) [3] = assay: ELISA; inhibition assay: Plg or Pln coated at 0.5 µg/well; 100 nM rSesY with 0 to 10 mM tranexamic acid or arginine; anti-His HRP detection; RT, 1 h
[4] = target: human plasminogen (human) (UniProt P00747); assay: as above
human plasmin (human) [5] = target: human plasmin (human)
human plasmin (human) [6] = target: human plasmin (human); remark: listed apart in the source

Chain of UniProt P00747 (P00747 20-810): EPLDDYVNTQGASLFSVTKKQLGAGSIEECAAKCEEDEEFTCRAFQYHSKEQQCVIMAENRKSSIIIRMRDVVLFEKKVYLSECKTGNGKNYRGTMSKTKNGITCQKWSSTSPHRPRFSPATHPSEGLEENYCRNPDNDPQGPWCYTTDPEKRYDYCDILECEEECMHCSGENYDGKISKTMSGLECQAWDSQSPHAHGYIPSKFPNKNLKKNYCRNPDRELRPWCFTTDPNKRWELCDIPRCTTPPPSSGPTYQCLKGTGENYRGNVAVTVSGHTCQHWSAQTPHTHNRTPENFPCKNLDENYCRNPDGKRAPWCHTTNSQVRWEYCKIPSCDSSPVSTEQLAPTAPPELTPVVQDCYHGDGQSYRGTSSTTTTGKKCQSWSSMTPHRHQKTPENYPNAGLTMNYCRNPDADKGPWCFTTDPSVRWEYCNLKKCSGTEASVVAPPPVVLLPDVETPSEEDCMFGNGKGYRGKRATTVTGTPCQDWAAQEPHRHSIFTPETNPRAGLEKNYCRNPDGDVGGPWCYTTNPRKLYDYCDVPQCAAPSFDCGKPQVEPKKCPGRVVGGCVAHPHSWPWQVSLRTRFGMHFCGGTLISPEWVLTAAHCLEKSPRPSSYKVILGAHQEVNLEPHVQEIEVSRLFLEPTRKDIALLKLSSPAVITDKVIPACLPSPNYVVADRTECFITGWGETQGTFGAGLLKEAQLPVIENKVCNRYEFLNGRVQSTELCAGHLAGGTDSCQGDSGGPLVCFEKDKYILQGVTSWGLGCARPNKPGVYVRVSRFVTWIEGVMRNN

Substance	Kd (human plasmin (human) [1])	Kd [2]	percent reduction of binding by 2 mM tranexamic acid (human plasmin (human) [3])	percent reduction of binding by 2 mM tranexamic acid [4]	Vmax of Pln on S-2251 without and with rSesY (0 to 10 µM) (human plasmin (human) [5])	fibrin gel remaining at 6 h and 12 h after digestion of pre-formed fibrin gel by Pln with 1, 2.5, 5 and 10 µM rSesY (38% to over 80%) (human plasmin (human) [6])	fibrin gel remaining at 12 h after digestion of pre-formed fibrin gel by Pln with 5 µM rSesY (controls 10%–25%) (human plasmin (human) [6])
recombinant SesY_(32–341) (S. epidermidis surface protein Y) (domain or fragment)	16 nM	210 nM	> 85%	> 85%	1.8 nM/min	> 80%	80%
recombinant fibronectin-binding protein B N2N3 domain from S. aureus (from UniProt A0A0H2XKG3 37-940) (domain or fragment)		30 nM					
